Here are results for one molecule from patent CN113321730A.

The assay addresses T1, hCLDN18.2 (human) (UniProt P56856).
T1 sequence (looked up): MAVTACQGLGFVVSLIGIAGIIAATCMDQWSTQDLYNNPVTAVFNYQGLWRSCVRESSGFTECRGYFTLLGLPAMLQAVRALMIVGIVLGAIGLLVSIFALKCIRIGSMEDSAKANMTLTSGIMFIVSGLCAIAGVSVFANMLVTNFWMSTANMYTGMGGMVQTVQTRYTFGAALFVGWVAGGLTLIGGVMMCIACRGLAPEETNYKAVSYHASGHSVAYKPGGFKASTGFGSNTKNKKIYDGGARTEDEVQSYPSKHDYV
The experiment in a line: FACS titration on 18.2-K562 cells (20 to 0.002 μg/mL), Anti-Human IgG FITC, MFI.

B1: 抗体E1(C18-23-3G5-1E1) (antibody, V domains shown)
VH: EVQLQQSGPELVKPGASVKISCQASGYTFTDYYMNWVKQSHVKSLEWIGHINPKNGGTNYNQNFKDKATLTVDKSSSTAYMELRSLTSEDSAVYYCARIYYGNSFVYWGQGTLVTVSA
VL: DIVMTQSPSFLTVTAGEKVTLNCKSSQSLLNSGNQKSYLTWYQQKPGQPPKLLIYWASTRESGVPDRFIGSGSGTDFTLTISSVQAEDLAVYYCQNNYFYPVTFGAGTKLELK
With B1, the 抗体亲和力 was 0.696 µg/mL.
